Reference: US20210388087A1 (Chugai, published 2021)
Changes are numbered by the printed parent chain. In names and notes the source's numbering stands. Values belong to the binder of their own block, whether it stands above or below them.

Assays:
Human CD137 ECD = molecular target: T1, Human CD137 ECD (human); experiment: single mutant vs template dBBDu183H
T1 construct: also called 4-1BB

[1] = molecular target: T2, CD3 epsilon homodimer protein (UniProt P07766 23-126); experiment: SPR Biacore T200, CD3e homodimer on chip, vs unaltered GLS3000 antibody
T2 construct: also called CD3 (CD3 epsilon)
T2 sequence (P07766 23-126): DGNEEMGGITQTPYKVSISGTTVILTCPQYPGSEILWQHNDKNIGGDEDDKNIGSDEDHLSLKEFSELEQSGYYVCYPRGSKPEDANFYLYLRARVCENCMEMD
Description: An appropriate amount of CD3 epsilon homodimer protein was immobilized onto Sensor chip CM4 (GE Healthcare Japan Corp.) by the amine coupling method. Then, the antibody having an appropriate concentration was injected thereto as an analyte and allowed to interact with the CD3 epsilon homodimer protein on the sensor chip. Then, the sensor chip was regenerated by the injection of 10 mmol/L glycine-HCl (pH 1.5). The assay was conducted at 25 degrees C., and HBS-EP+(GE Healthcare Japan Corp.) was used as a running buffer. […] Each parameter was calculated using Biacore T200 Evaluation Software (GE Healthcare Japan Corp.).

T1 sequence (chain, as listed by the source limits assumed): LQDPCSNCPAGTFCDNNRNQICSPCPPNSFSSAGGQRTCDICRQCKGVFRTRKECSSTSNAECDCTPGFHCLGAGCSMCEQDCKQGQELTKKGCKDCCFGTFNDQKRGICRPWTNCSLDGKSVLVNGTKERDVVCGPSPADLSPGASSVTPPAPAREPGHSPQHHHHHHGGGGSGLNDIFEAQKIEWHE

B2: GLS3000 H27dA (antibody, name in Kabat numbering, V domains shown)
VH: QVQLVESGGGVVQPGRSLRLSCAASGFTFSNAWMHWVRQAPGKGLEWVAQIKAKSNNYATYYAESVKGRFTISRDDSKNSLYLQMNSLKTEDTAVYYCRYVHYGAYYGVDAWGQGTTVTVSS
VL: DIVMTQSPLSLPVTPGEPASISCRSSQSLVASNRNTYLHWYQQKPGQAPRLLIYKVSNRFSGVPDRFSGSGSGTDFTLKISRVEAEDVGVYYCGQGTQVPYTFGQGTKLEIK
notes: one-arm IgG as m2
ratio of amounts bound (Z=Y/X) [1]: 0.48

B4: H183/L072 VH Y59K (antibody, name in Kabat numbering, V domains shown)
VH: QVQLVESGGGLVQPGRSLRLSCAASGFTFSNAWMHWVRQAPGKGLEWVAQIKDKGNAYAAYKAPSVKGRFTISRDDSKNSIYLQMNSLKTEDTAVYYCHYVHYASASTVLPAFGVDAWGQGTTVTVSS
VL: B2 VL with R24Q, S25A, S28E, A31H, S32M, S61P, G94A, Q98S, Y101F
fold change of affinity (Human CD137 ECD): 1 fold

B6: GLS3000 F55G (antibody, name in Kabat numbering, V domains shown)
VH: B2 VH
VL: B2 VL with A31H, F60G
notes: one-arm IgG as m2
ratio of amounts bound (Z=Y/X) [1]: 1.31

B9: H183/L072 VH Y59F (antibody, name in Kabat numbering, V domains shown)
VH: B4 VH with K62F
VL: B2 VL with R24Q, S25A, S28E, A31H, S32M, S61P, G94A, Q98S, Y101F
fold change of affinity (Human CD137 ECD): 1.5 fold

B12: H183/L072 VH Y97L (antibody, name in Kabat numbering, V domains shown)
VH: B4 VH with K62Y, Y103L
VL: B2 VL with R24Q, S25A, S28E, A31H, S32M, S61P, G94A, Q98S, Y101F
fold change of affinity (Human CD137 ECD): 0 fold

B13: GLS3000 F55A (antibody, name in Kabat numbering, V domains shown)
VH: B2 VH
VL: B2 VL with A31H, F60A
notes: one-arm IgG as m2
ratio of amounts bound (Z=Y/X) [1]: 1.13

B16: H183/L072 VH Y97I (antibody, name in Kabat numbering, V domains shown)
VH: B4 VH with K62Y, Y103I
VL: B2 VL with R24Q, S25A, S28E, A31H, S32M, S61P, G94A, Q98S, Y101F
fold change of affinity (Human CD137 ECD): 0 fold

B19: H183/L072 VH Y59L (antibody, name in Kabat numbering, V domains shown)
VH: B4 VH with K62L
VL: B2 VL with R24Q, S25A, S28E, A31H, S32M, S61P, G94A, Q98S, Y101F
fold change of affinity (Human CD137 ECD): 1.1 fold

B20: H183/L072 VH Y58T (antibody, name in Kabat numbering, V domains shown)
VH: B4 VH with Y61T, K62Y
VL: B2 VL with R24Q, S25A, S28E, A31H, S32M, S61P, G94A, Q98S, Y101F
fold change of affinity (Human CD137 ECD): 0.3 fold

B25: H183/L072 VH Y94P (antibody, name in Kabat numbering, V domains shown)
VH: B4 VH with K62Y, Y100P
VL: B2 VL with R24Q, S25A, S28E, A31H, S32M, S61P, G94A, Q98S, Y101F
fold change of affinity (Human CD137 ECD): 0 fold

B26: GLS3000 F55H (antibody, name in Kabat numbering, V domains shown)
VH: B2 VH
VL: B2 VL with A31H, F60H
notes: one-arm IgG as m2
ratio of amounts bound (Z=Y/X) [1]: 0.94

B28: H183/L072 VH Y59A (antibody, name in Kabat numbering, V domains shown)
VH: B4 VH with K62A
VL: B2 VL with R24Q, S25A, S28E, A31H, S32M, S61P, G94A, Q98S, Y101F
fold change of affinity (Human CD137 ECD): 0.7 fold

B29: H183/L072 VH Y59H (antibody, name in Kabat numbering, V domains shown)
VH: B4 VH with K62H
VL: B2 VL with R24Q, S25A, S28E, A31H, S32M, S61P, G94A, Q98S, Y101F
fold change of affinity (Human CD137 ECD): 0.8 fold

B30: H183/L072 VH Y59Q (antibody, name in Kabat numbering, V domains shown)
VH: B4 VH with K62Q
VL: B2 VL with R24Q, S25A, S28E, A31H, S32M, S61P, G94A, Q98S, Y101F
fold change of affinity (Human CD137 ECD): 0.8 fold

B31: GLS3000 F55E (antibody, name in Kabat numbering, V domains shown)
VH: B2 VH
VL: B2 VL with A31H, F60E
notes: one-arm IgG as m2
ratio of amounts bound (Z=Y/X) [1]: 0.72

B32: GLS3000 F55D (antibody, name in Kabat numbering, V domains shown)
VH: B2 VH
VL: B2 VL with A31H, F60D
notes: one-arm IgG as m2
ratio of amounts bound (Z=Y/X) [1]: 0.65

B35: H183/L072 VH Y94M (antibody, name in Kabat numbering, V domains shown)
VH: B4 VH with K62Y, Y100M
VL: B2 VL with R24Q, S25A, S28E, A31H, S32M, S61P, G94A, Q98S, Y101F
fold change of affinity (Human CD137 ECD): 3.2 fold

B37: H183/L072 VH Y58W (antibody, name in Kabat numbering, V domains shown)
VH: B4 VH with Y61W, K62Y
VL: B2 VL with R24Q, S25A, S28E, A31H, S32M, S61P, G94A, Q98S, Y101F
fold change of affinity (Human CD137 ECD): 0.2 fold

B39: H183/L072 VH Y59V (antibody, name in Kabat numbering, V domains shown)
VH: B4 VH with K62V
VL: B2 VL with R24Q, S25A, S28E, A31H, S32M, S61P, G94A, Q98S, Y101F
fold change of affinity (Human CD137 ECD): 0.8 fold

B40: H183/L072 VH Y59T (antibody, name in Kabat numbering, V domains shown)
VH: B4 VH with K62T
VL: B2 VL with R24Q, S25A, S28E, A31H, S32M, S61P, G94A, Q98S, Y101F
fold change of affinity (Human CD137 ECD): 0.8 fold

B43: H183/L072 VH Y58R (antibody, name in Kabat numbering, V domains shown)
VH: B4 VH with Y61R, K62Y
VL: B2 VL with R24Q, S25A, S28E, A31H, S32M, S61P, G94A, Q98S, Y101F
fold change of affinity (Human CD137 ECD): 0.4 fold

B45: H183/L072 VH Y97A (antibody, name in Kabat numbering, V domains shown)
VH: B4 VH with K62Y, Y103A
VL: B2 VL with R24Q, S25A, S28E, A31H, S32M, S61P, G94A, Q98S, Y101F
fold change of affinity (Human CD137 ECD): 0 fold

Results, then the binder that gave them:

fold change of affinity (Human CD137 ECD): 0.3 fold
B1: H183/L072 VH Y58N (antibody, name in Kabat numbering, V domains shown)
VH: B4 VH with Y61N, K62Y
VL: B2 VL with R24Q, S25A, S28E, A31H, S32M, S61P, G94A, Q98S, Y101F

fold change of affinity (Human CD137 ECD): 0 fold
B3: H183/L072 VH Y97M (antibody, name in Kabat numbering, V domains shown)
VH: B4 VH with K62Y, Y103M
VL: B2 VL with R24Q, S25A, S28E, A31H, S32M, S61P, G94A, Q98S, Y101F

ratio of amounts bound (Z=Y/X) [1]: 0.82
B5: GLS3000 F55I (antibody, name in Kabat numbering, V domains shown)
VH: B2 VH
VL: B2 VL with A31H, F60I
notes: one-arm IgG as m2

fold change of affinity (Human CD137 ECD): 0 fold
B7: H183/L072 VH Y97P (antibody, name in Kabat numbering, V domains shown)
VH: B4 VH with K62Y, Y103P
VL: B2 VL with R24Q, S25A, S28E, A31H, S32M, S61P, G94A, Q98S, Y101F

ratio of amounts bound (Z=Y/X) [1]: 1.33
B8: GLS3000 F55K (antibody, name in Kabat numbering, V domains shown)
VH: B2 VH
VL: B2 VL with A31H, F60K
notes: one-arm IgG as m2

ratio of amounts bound (Z=Y/X) [1]: 0.76
B10: GLS3000 F55L (antibody, name in Kabat numbering, V domains shown)
VH: B2 VH
VL: B2 VL with A31H, F60L
notes: one-arm IgG as m2

fold change of affinity (Human CD137 ECD): 1.5 fold
B11: H183/L072 VH Y59W (antibody, name in Kabat numbering, V domains shown)
VH: B4 VH with K62W
VL: B2 VL with R24Q, S25A, S28E, A31H, S32M, S61P, G94A, Q98S, Y101F

fold change of affinity (Human CD137 ECD): 0 fold
B14: H183/L072 VH Y94A (antibody, name in Kabat numbering, V domains shown)
VH: B4 VH with K62Y, Y100A
VL: B2 VL with R24Q, S25A, S28E, A31H, S32M, S61P, G94A, Q98S, Y101F

fold change of affinity (Human CD137 ECD): 0.2 fold
B15: H183/L072 VH Y58V (antibody, name in Kabat numbering, V domains shown)
VH: B4 VH with Y61V, K62Y
VL: B2 VL with R24Q, S25A, S28E, A31H, S32M, S61P, G94A, Q98S, Y101F

fold change of affinity (Human CD137 ECD): 0.9 fold
B17: H183/L072 VH Y59R (antibody, name in Kabat numbering, V domains shown)
VH: B4 VH with K62R
VL: B2 VL with R24Q, S25A, S28E, A31H, S32M, S61P, G94A, Q98S, Y101F

fold change of affinity (Human CD137 ECD): 0.4 fold
B18: H183/L072 VH Y58Q (antibody, name in Kabat numbering, V domains shown)
VH: B4 VH with Y61Q, K62Y
VL: B2 VL with R24Q, S25A, S28E, A31H, S32M, S61P, G94A, Q98S, Y101F

fold change of affinity (Human CD137 ECD): 0.7 fold
B21: H183/L072 VH Y59E (antibody, name in Kabat numbering, V domains shown)
VH: B4 VH with K62E
VL: B2 VL with R24Q, S25A, S28E, A31H, S32M, S61P, G94A, Q98S, Y101F

fold change of affinity (Human CD137 ECD): 0.8 fold
B22: H183/L072 VH Y59D (antibody, name in Kabat numbering, V domains shown)
VH: B4 VH with K62D
VL: B2 VL with R24Q, S25A, S28E, A31H, S32M, S61P, G94A, Q98S, Y101F

fold change of affinity (Human CD137 ECD): 0.8 fold
B23: H183/L072 VH Y59S (antibody, name in Kabat numbering, V domains shown)
VH: B4 VH with K62S
VL: B2 VL with R24Q, S25A, S28E, A31H, S32M, S61P, G94A, Q98S, Y101F

fold change of affinity (Human CD137 ECD): 0.3 fold
B24: H183/L072 VH Y59P (antibody, name in Kabat numbering, V domains shown)
VH: B4 VH with K62P
VL: B2 VL with R24Q, S25A, S28E, A31H, S32M, S61P, G94A, Q98S, Y101F

fold change of affinity (Human CD137 ECD): 0 fold
B27: H183/L072 VH Y94L (antibody, name in Kabat numbering, V domains shown)
VH: B4 VH with K62Y, Y100L
VL: B2 VL with R24Q, S25A, S28E, A31H, S32M, S61P, G94A, Q98S, Y101F

fold change of affinity (Human CD137 ECD): 1.1 fold
B33: H183/L072 VH Y59M (antibody, name in Kabat numbering, V domains shown)
VH: B4 VH with K62M
VL: B2 VL with R24Q, S25A, S28E, A31H, S32M, S61P, G94A, Q98S, Y101F

fold change of affinity (Human CD137 ECD): 0.9 fold
B34: H183/L072 VH Y59G (antibody, name in Kabat numbering, V domains shown)
VH: B4 VH with K62G
VL: B2 VL with R24Q, S25A, S28E, A31H, S32M, S61P, G94A, Q98S, Y101F

fold change of affinity (Human CD137 ECD): 0 fold
B36: H183/L072 VH Y94I (antibody, name in Kabat numbering, V domains shown)
VH: B4 VH with K62Y, Y100I
VL: B2 VL with R24Q, S25A, S28E, A31H, S32M, S61P, G94A, Q98S, Y101F

fold change of affinity (Human CD137 ECD): 0.7 fold
B38: H183/L072 VH Y59I (antibody, name in Kabat numbering, V domains shown)
VH: B4 VH with K62I
VL: B2 VL with R24Q, S25A, S28E, A31H, S32M, S61P, G94A, Q98S, Y101F

fold change of affinity (Human CD137 ECD): 0.8 fold
B41: H183/L072 VH Y59N (antibody, name in Kabat numbering, V domains shown)
VH: B4 VH with K62N
VL: B2 VL with R24Q, S25A, S28E, A31H, S32M, S61P, G94A, Q98S, Y101F

fold change of affinity (Human CD137 ECD): 0.3 fold
B42: H183/L072 VH Y58S (antibody, name in Kabat numbering, V domains shown)
VH: B4 VH with Y61S, K62Y
VL: B2 VL with R24Q, S25A, S28E, A31H, S32M, S61P, G94A, Q98S, Y101F

fold change of affinity (Human CD137 ECD): 0.2 fold
B44: H183/L072 VH Y58P (antibody, name in Kabat numbering, V domains shown)
VH: B4 VH with Y61P, K62Y
VL: B2 VL with R24Q, S25A, S28E, A31H, S32M, S61P, G94A, Q98S, Y101F
